“Also recorded” adds a separate entry of the source.
Assays:
Format in all cases: physicochemical
[1] = Far-UV circular dichroism (secondary structure); details: for Ellipticity ratio (208/222 nm): 60 µM insulin or lispro variant, 100 mM phosphate, pH 8.0
Procedure: Figure 2 Biological activity and CD spectroscopy of lispro variants.A, lispros were injected subcutaneously into diabetic mice, and blood glucose was measured over time after injection. The data presented here represent the mean ± SD of 3 to 6 biological replicates. B–E, far-UV circular dichroism spectra (60 μM lispro in […] phosphate buffer, pH 8.0). […] 4R-F, 4R-fluoroproline; 4S-F, 4S-fluoroproline.
The secondary structure of each insulin lispro variant was probed by circular dichroism spectroscopy. […] All lispro samples were further analyzed by analytical ultracentrifugation (Fig. S3). To determine the dissociation constant of each variant, we fit the data to a reversible monomer-dimer equilibrium ([29]). […]
Circular dichroism spectroscopy:
Equilibrium measurements: The circular dichroism spectra of insulin or lispro samples (60 µM in
100 mM sodium phosphate, pH 8.0) were measured at 25°C in 1 mm quartz cuvettes using a step
size of 0.5 nm and averaging time of 1 s on an Aviv Model 430 Circular Dichroism
Spectrophotom eter. A reference buffer spectrum was subtracted from each sample spectrum. […]
Analytical ultracentrifugation: […]

[2] = test system: zinc- and resorcinol-bound hexamer; assay: Hexamer dissociation kinetics by CD after dilution; details: 250 μM ZnCl2, 25 mM resorcinol; for Hexamer dissociation t1/2: 600 μM insulin or lispro, 25 mM tris pH 8.0, 150-fold dilution, 25 °C, ellipticity at 222 nm over 120 s, at least two separate HPLC fractions, different days
Procedure: We measured the half-life (t1/2) for dissociation of the hexamer form of each lispro variant by monitoring the change in negative ellipticity at 222 nm over time after dilution (Figs. 3A, S4, and S5). Insulin and lispro variants were formulated to mimic the pharmaceutical formulation (600 μM insulin, 25 mM resorcinol, 250 μM ZnCl2); resorcinol was used as the phenolic ligand to slow dissociation ([30]). […] Monitoring dissociation processes faster than that of lispro is limited by the mixing time of this experiment, though comparisons to human insulin can still be made.
Samples were dialyzed overnight against 28.6 mM tris buffer, pH 8.0, then formulated as 600 μM insulin or lispro, 250 μM ZnCl2, 25 mM resorcinol, 25 mM tris, pH 8.0. A 20 μl aliquot of the formulation solution was injected into a stirred buffer solution containing 2.98 ml of 25 mM tris, pH 8.0 (150-fold dilution) at 25 °C. Ellipticity was monitored over 120 s at 222 nm. A typical run led to a rapid drop in CD signal as mixing occurred (∼5 s), then a gradual rise to an ellipticity representative of an insulin monomer. Data preceding the timepoint with the greatest negative ellipticity represented the mixing time and were omitted from further analysis. […] Dissociation data were fit to a mono-exponential function using Scipy (Python). The data presented here are from at least two separate HPLC fractions, measured on different days. […]
Circular dichroism spectroscopy: […]
Kinetic measurements: Insulin or lispro samples in 100 mM sodium phosphate buffer pH 8.0 were dialyzed overnight against 28.6 mM tris buffer, pH 8.0 (Slide -A-Lyzer dialysis cassettes, 3.5 kDa MWCO, ThermoFisher). Samples were formulated as follows: 600 µM lispro, 250 µM ZnCl 2, 25 mM resorcinol, 25 mM tris buffer, pH 8. A 20 µL volume of the insulin formulation was injected into a stirred buffer solution containing 2.98 mL of 25 mM tris, pH 8.0 in a 10 mm quartz cuvette (150-fold dilution). Ellipticity was m onitored at 222 nm over 120 s (1 s kinetic interval, 0.5 s time constant) at 25°C. A typical run led to a rapid drop in CD signal as mixing occurred (~5 s), then a gradual rise to an equilibrium ellipticity representative of an insulin monomer. Data preceding […]
omitted from further analysis. Runs were discarded if the maximum change in mean residue […]
remaining data were fit to a mono -exponential function using Scipy (Python); data presented here are from at least two separate HPLC fractions, measured on two different days.
An equilibrium spectrum for each protein was obtained after dilution; all spectra were indicative of an insulin monomer (Figure S3). The CD spectrum of lispro under pre -dilution formulation conditions was obtained using a 0.1 mm quartz cuvette. […]

[3] = Fibrillation (thioflavin T), shaking at 37 °C; details: 60 μM in 100 mM sodium phosphate, pH 8.0, 37 °C; for Fibrillation lag time: shaking 960 rpm, 1 μM ThT (444/485 nm), lag time = x-intercept, two HPLC fractions, each in triplicate or quadruplicate, two days; for fibrillation: vigorous shaking, ThT
Procedure: Each insulin lispro variant was subjected to continuous, vigorous shaking at 37 °C to assess its stability against physical denaturation; fibrillation was monitored with the dye thioflavin T, (Fig. 4A).
Figure 4 Fibrillation of lispro variants.A, lispro variants (60 μM in 100 mM phosphate buffer, pH 8.0) were incubated at 37 °C with vigorous shaking; fibril formation was monitored by ThT fluorescence. Fibrillation runs were performed on two separate HPLC fractions, each in triplicate or quadruplicate, on two separate days. B–E, TEM images of lispro (B), KP-4R-F (C), KP-4S-F (D), and KP-44-diF (E) aggregates. F, ANS emission spectra of lispro variants (1 μM lispro variant labeled with 5 μM ANS in 100 mM phosphate buffer, pH 8.0). The data presented here indicate the mean ± SD for each variant from measurements of three separate HPLC fractions. 44-diF, 4,4-difluoroproline; 4R-F, 4R-fluoroproline; 4S-F, 4S-fluoroproline; ThT, thioflavin T.
Lispro samples (60 μM in 100 mM sodium phosphate buffer, pH 8.0) were centrifuged (22,000g, 1 h, 4 °C); 1 μM thioflavin T was then added. Each lispro variant was shaken continuously in a 96-well, black, clear bottom plate at 37 °C, and fluorescence (444 nm excitation, 485 nm emission) was monitored over time. Fibrillation runs were performed on two separate HPLC fractions, each in triplicate or quadruplicate, on two separate days. The growth phase of each replicate was fit to a linear function; lag times were reported as the x-intercept. […]
Lispro samples (60 µM in 100 mM sodium phosphate, pH 8.0) were centrifuged at 22,000 g for 1 h at 4°C, before 1 µM thioflavin T (ThT) was added. Each lispro (200 µL) was added to a 96 -well, black, clear bottom plate (Greiner Bio -One) and sealed. Samples were shaken continuously at 960 rpm on a Varioskan multimode plate reader at 37°C, and fluorescence readings were recorded every 15 min (444 nm excitation, 485 nm em ission). Fibrillation runs were performed on at least two separate HPLC fractions, each in triplicate or quadruplicate, and on two different days. The growth phase of each fibrillation replicate was fit to a linear function; f ibrillation lag times were reported as the x-intercept of this fit. Fibril samples were stored at 4°C until analysis by transmission electron microscopy (TEM).
Transmission electron microscopy: […]

KP-4R-F: insulin lispro with ProB29 replaced by 4R-fluoroproline
Ellipticity ratio (208/222 nm) ([1]; 25 °C): 1.62 ± 0.06 | Hexamer dissociation t1/2 [2]: 10.2 ± 1.6 s | Fibrillation lag time [3]: 10.3 ± 2.4 h | fibrillation [3]: did not significantly change the fibrillation lag time

KP-4S-F: insulin lispro with ProB29 replaced by 4S-fluoroproline
Ellipticity ratio (208/222 nm) ([1]; 25 °C): 1.59 ± 0.06 | Hexamer dissociation t1/2 [2]: 11.2 ± 3.3 s | Fibrillation lag time [3]: 17.9 ± 0.8 h | fibrillation [3]: stabilized against fibril formation; also recorded: extended lag time to fibril formation

KP-44-diF: insulin lispro with ProB29 replaced by 4,4-difluoroproline
Ellipticity ratio (208/222 nm) ([1]; 25 °C): 1.61 ± 0.05 | Hexamer dissociation t1/2 [2]: 9.9 ± 2.9 s | Fibrillation lag time [3]: 9.0 ± 1.3 h | fibrillation [3]: did not significantly change the fibrillation lag time

insulin lispro: fast-acting insulin with inversion of the residues ProB28 and LysB29; Humalog, Eli Lilly [reference compound]
Ellipticity ratio (208/222 nm) ([1]; 25 °C): 1.63 ± 0.07 | oligomeric state at 60 μM ([1]; 60 μM, statement in discussion of CD spectra): monomeric | CD spectrum ([1]; far-UV CD, 60 μM lispro in 10 mM phosphate buffer, pH 8.0 (Fig. 2; SI: 100 mM sodium phosphate), 25 °C): increased negative ellipticity at 208 nm and decreased negative ellipticity at 222 nm | hexamer dissociation ([2]; 600 μM protein, 150-fold dilution, pH 8.0, 25 °C, CD 222 nm): dissociated significantly more rapidly than human insulin | Fibrillation lag time [3]: 10.9 ± 2.2 h
